In patent US20160280744A1:

What was measured:
[1] = molecular target: human IgG (Oriental Yeast Co., ltd) (human); assay: affinity column (1 ml carrier with immobilised protein), human IgG 1 mg/ml at pH 7.2, 10% breakthrough, flow rate 1.0 mL/min
[2] = molecular target: human IgG (Oriental Yeast Co., ltd) (human); assay: pH gradient affinity chromatography, bound at pH 7.2, gradient 20 mM citric acid pH 6.0 to pH 2.4 over 80 min
[3] = molecular target: human IgG (Oriental Yeast Co., ltd) (human); assay: affinity column (1 ml carrier with immobilised protein), human IgG 1 mg/ml at pH 7.2, 10% breakthrough, flow rate 0.4 mL/min

B1: tandem-type tetramer PG, rPG-A4 (CGB19H-4D) (designed binder)
chain: MAYYDPETGTWYSGGRDTYKLILNGKTLKGETTTEAVDAATAEKVFKHYANEHGVHGHWTYDPETKTFTVTERPEVIDASELTPAVDTYKLILNGKTLKGETTTEAVDAATAEKVFKHYANEHGVHGHWTYDPETKTFTVTERPEVIDASELTPAVDTYKLILNGKTLKGETTTEAVDAATAEKVFKHYANEHGVHGHWTYDPETKTFTVTERPEVIDASELTPAVDTYKLILNGKTLKGETTTEAVDAATAEKVFKHYANEHGVHGHWTYDPETKTFTVTERPEVIDASELTPAVGGGGSGGGGSGGGGSGGGGCHHHHHH
- dynamic binding capacity (DBC) [1]: 5.3 mg
- pH at the peak of the elution of human IgG [2]: 4.4 pH
- dynamic binding capacity (DBC) [3]: 12.3 mg
